{
  "source": "paper PMC2588538",
  "about": "“Structure of Reovirus σ1 in Complex with Its Receptor Junctional Adhesion Molecule-A” (PLoS Pathogens, 2008)",
  "molecules": {"B1": {"name": "D1 domain of human junctional adhesion molecule-A (hJAM-A D1; residues 28–129) (domain or fragment)", "chain": "GSSVTVHSSEPEVRIPENNPVKLSCAYSGFSSPRVEWKFDQGDTTRLVCYNNKITASYEDRVTFLPTGITFKSVTREDTGTYTCMVSEEGGNSYGEVKVKLIVL", "notes": "two non-native residues left at the N-terminus after removal of GST, numbered Gly26 and Ser27; human junctional adhesion molecule-A, membrane-distal D1 domain, residues 28-129; Homodimer in solution at neutral pH; also called wt D1; source: E. coli BL21 (DE3) pLysS, purified (GSTrap, on-column thrombin cleavage, SEC); not shown: GST, N-terminal, cleaved"}, "B2": {"name": "reovirus type 3 Dearing (T3D) σ1 fragment comprising the head domain and one β-spiral of the tail (σ1H; residues 293–455) (domain or fragment)", "chain": "GSSPNLRYPIADVSGGIGMSPNYRFRQSMWIGIVSYSGSGLNWRVQVNSDIFIVDDYIHICLPAFDGFSIADGGDLSLNFVTGLLPPLLTGDTEPAFHNDVVTYGAQTVAIGLSSGGAPQYMSKNLWVEQWQDGVLRLRVEGGGSITHSNSKWPAMTVSYPRSFT", "notes": "two non-native residues left at the N-terminus after removal of GST, numbered Gly291 and Ser292; reovirus attachment protein σ1, strain type 3 Dearing (T3D), residues 293-455 (head domain and one β-spiral of the tail); Trimer in the crystal; also called T3D σ1 head domain; not shown: GST, N-terminal, cleaved"}},
  "key": {"CAR (Homo sapiens)": {"target": "CAR (Homo sapiens) (UniProt P78310)", "conditions": "cited from earlier work"}, "[1]": {"target": "the molecule itself", "assay": "AUC; sedimentation equilibrium, 17.5/25/35 krpm, 25°C, 20 mM Tris pH 7.5, 100 mM NaCl; four concentrations 0.16 to 1.6 mg/mL; monomer-dimer model with variable amounts of tetramer; dimer to monomers"}, "[2]": {"target": "B2", "assay": "crystal structure; σ1H-D1 complex, 3.4 Å, space group P2_(1)2_(1)2; crystals from 0.1 M CHES pH 9.5, polyethylene glycol 3350, 20°C; two σ1H trimers each with three D1 monomers in the asymmetric unit", "conditions": "both partners purified"}, "[3]": {"target": "the molecule itself", "assay": "AUC; sedimentation velocity, 50 krpm, 25°C, 20 mM Tris pH 7.5, 100 mM NaCl; five concentrations 0.06 to 1.31 mg/mL; interference optics"}, "[4]": {"target": "the molecule itself", "assay": "crystal structure; σ1H-D1 complex, 3.4 Å, space group P2_(1)2_(1)2; crystals from 0.1 M CHES pH 9.5, polyethylene glycol 3350, 20°C; two σ1H trimers each with three D1 monomers in the asymmetric unit"}},
  "data": [
    {"molecule": "CAR (from UniProt P78310)", "values": [
      {"measurement": "Kd", "setting": "CAR (Homo sapiens)", "result": 16, "unit": "µM"}
    ]},
    {"molecule": "B1", "values": [
      {"measurement": "Kd", "setting": "[1]", "result": 11, "unit": "µM"},
      {"measurement": "binding result", "setting": "[2]", "result": "binds"},
      {"measurement": "stoichiometry N", "setting": "[3]", "result": 2}
    ]},
    {"molecule": "B2", "values": [
      {"measurement": "stoichiometry N", "setting": "[4]", "result": 3}
    ]}
  ]
}
